Target: RAB21 (UniProt P35282)
Assay: GST pull-down with purified proteins
Conditions: reference: RPH3A incubated with PKN1 without ATP; sites S234,S271

“RPH3A (Rabphilin 3A) (from UniProt P47708) RPH3A incubated with PKN1 and ATP” was tested. Which “binding against the reference” value did it give?
Its value is “stronger”.

Source: paper PMC5548392
